B1: TPR t1 (parent)
chain: GACCAAUCUGCCCUCAGAGCUCGAGAACAUCUUCGGAUGCAGAGGAGGCAGGCUUCGGUGGCGCGAUAGCGCCAACGUCCUCAACCUCCAAUGCAUCCCACCACAUGAUGAUGCCUGAAGAGCCUUGGUUUUUUG

Variants of: B1
Assay: polymerase ribozyme fitness, log enrichment relative to wild type (log ratio); higher = more active; in vitro selection for triplet polymerase activity
In short: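 Streptavidin-bead capture of gel-excised extended constructs, followed by RT-PCR, closed a single triplicate in vitro selection round. That round began by annealing PCR-built, transcribed mutant libraries of each subunit of a heterodimeric triplet polymerase ribozyme with a biotinylated primer, the partner subunit and triplets, then incubating them frozen at −7 °C. After Illumina sequencing of inputs and outputs, genotypes needed ≥10 input reads and ≥1 read per output. Fitness is the base-2 logarithm of genotype enrichment over wild-type enrichment, using inverse-variance-weighted replicate averages.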

Variant	polymerase ribozyme fitness (log ratio)
G117C C123U U126A	-5.9
C114U C123A	-1.94
A108G A111C	-1.58
G107A U133G	-4.3
G113U G127U	-4.46
G113U G127C	-1.61
A111U U116C	-4.01
U106C U116A	-2.94
C114A G117U C124U	-6.08
U112G G128U	-2.4
G110U A111G G113C	-2.46
A111G A121C	0.741
U106G G117U	-4.18
G117A U129A	-3.39
G117A U129C	-2.05
U106A C115G	-3.75
A111U U132A	-2.14
A111C A119C G127U	-2.96
G113U G122C C123A	-2.42
G110U G127A	-2.05
G110U G127U	-1.57
C114U U133G	-0.517
A105U U133A	-1.78
U116G A121G	-0.679

Variant	polymerase ribozyme fitness (log ratio)
U116G A121C	-0.876
G113U G122C	-2.73
C115A G135U	-0.547
G113A U116A	-4.71
C115U G122U	-1.31
U106A C114A	-1.93
C115U G128C	-3.16
G107U G117C	-4.7
G107A U132A	-5.08
U109G G120A	-4.17
G117A C123G	-1.9
A111C G113A	-3.44
C114U A119C	-6.28
G110U G117A	-2.69
G110U G117U	-4.2
C115U G135U	-1.91
G113A C114G	-1.96
G107U A121U U132A	-2.5
U116G G120C	-0.715
U116G G120U	-2.52
A118G G120C	-0.275
U106A G135U	-0.228
C115A U116A	-2.84
C115U C124U	-1.17

Variant	polymerase ribozyme fitness (log ratio)
C114A U133G	-1.84
G110C G120C	-4.2
G113C U116A	-4.45
G113C U116G	-3.72
G110A U133A	-1.59
A111C C114A	-2.98
U109A U134G	-5.32
C114U A118U	-3.68
G110U U116A	-3.44
G107U G113U	-6.69
G113U G120C G128U	-4.07
U106A G128C	-2.95
A119C	-4.38
U106A C114G U133C	-2.16
U116C A121G U129C	-3.73
C115U A118C	-2.16
C115G C124U	-1.13
U112A A119C	-1.25
G113U U131C	-3.4
C115U G127A	-3.15
G113U G120C	-1.71
U112G U133G	-0.442
G113A G117A	-4.4
G117U G120A U132A	-1.33

Variant	polymerase ribozyme fitness (log ratio)
U112C C124U G128U	-0.524
G113C U116G C124A	-5.98
C114G G128A U130A	-5.53
C114A C115G G122C G127U	-5.32
U112G U130C	0.265
G113U G128A	-3.35
G113U G128C	-4.63
G113U G128U	-4.72
C114G C123U	-4.31
C114G C123A	-1.74
G110U G122U	-2.07
G110U G122A	-2.47
G107C A121U	-3.13
U112G C123G	0.429
U112G C123U	0.561
G113C G135U	-4.15
A111U A121U U129A G135C	-2.04
U112A U126G	0.0604
U112A U126C	0.739
U106A U116C	-0.567
C114U U132A	-1.1
G110C A119U	-1.71
A111C G128A	-1.07
G110C U125A	-5.11

Variant	polymerase ribozyme fitness (log ratio)
A118U C123A U130C	-0.0514
U106G G107A U133A	-5.4
G117A U125G	-1.64
G117A C124U	-0.187
C114A G127U	-3.82
G113A G128U	-2.37
C115A U125G	0.221
G113A U125A	-1.24
C114G G120U	-3.34
G110C G122C	-5.25
U109C C124A	-1.7
A118U U130G	-0.458
U106A U126C	-0.645
U106G C124A	1.19
U112A C123U	1.03
U112A C123G	0.872
U112C C124U	1.58
G117U A118U	-2.66
U106G U130G	-1.21
G110C U132A	-3.46
G113A A121G	-0.104
A111G C115U	-2.28
U112A G128U U131C	1.17
A111C A119U U125A	-4.12

Variant	polymerase ribozyme fitness (log ratio)
U116G A119G	1.79
G107A G117A	-5.11
U106C G113U	-3.01
U116C G135A	-0.82
A118G G135C	-0.273
G113C U125A	-3.4
G113U G117A	-5.13
G110U A119U	-1.65
U106G U112A G120C	-3.09
U116G C123U G128A	-5.61
U109A C124U	-4.15
A108G U125G	-2.24
C114A C123U G128U	-4.41
G117U C123G	-1.56
G117U C123A	-2.17
G107U C123G	-2.37
G117C C123U	-4.89
G117C A118C	-3.06
G117C A118G	-3.04
U109A U133A	-5.88
G110C U130G	-6.34
G110U U133C	0.02
C114G C124A G135A	-0.373
C114A A119G	0.218

Variant	polymerase ribozyme fitness (log ratio)
C115U G117C	-3.48
A108G G120A C124G U131G	-0.578
U106C G127C	-1.07
G113A U126C	-0.83
U112G G122A	-1.74
U112A G113U	-0.351
A111G U133G	-0.431
G107A U112A	-5.07
C115G G117A G135A	-3.04
U109C A121G C124A G127C	-3.66
G113U U132A	-2.22
C114G U130A	-2.22
A111C C115A	-3.19
U116C G117C	-2.2
G117C U129G	-6.14
U106A U109C	-3.27
U116A U133C	-3.8
U116G G117A	-1.82
A105U G127C	-2.7
G110U	-1.08
G110A	-0.79
G110C	-3.75
C115A G122U U132C	-0.273

Source: the RNAGym collection of RNA variant scans (doi:10.1073/pnas.2313332121)
